Source: patent US20240083974A1 (ETH Z RICH, published 2024)
Ends that are not written are not given here.

Molecular target: T1, artificial transmembrane protein with eYFP (enhanced yellow fluorescent protein) as the receptor structure (Aequorea victoria (Water jellyfish) …, UniProt P42212 2-238 = GFP)
T1 construct: Control construct in living cells; not shown: Three are signal peptide-SNAPf-PdgfrTM-Li
Experiment: label-free diffraction signal (focal molography) from living cells on a nanopatterned waveguide after injection of the peptide

B1: Grb2-targeting peptide (peptide)
peptide: KKWKMRRNPFWIKIQRCCGIRVVDNSPPPPLPPRRRRSAPSPTRV-NH2
modifications: cysteine pairing not given here
notes: The hyphen between the two Cys may mean two peptides joined by a disulfide; also called P6; protein specifically targeting Grb2
Q: Does B1 bind?
A: no binding
